# According to paper PMC9680610:
# Legend:
# Experiment in all cases: mass photometry
# [1] = molecular target: SARS-CoV-2 spike, wild-type (Wuhan-hu-1 strain), HexaPro stabilised (K986P, V987P, F817P, A892P, A89 (SARS-CoV-2 (Wuhan-hu-1 strain)) (UniProt P0DTC2))
# [2] = molecular target: SARS-CoV-2 spike, Omicron (B.1.1.529 strain), 2P stabilised (SARS-CoV-2 (Omicron B.1.1.529 strain)) (UniProt P0DTC2)
# [3] = molecular target: SARS-CoV-2 spike, wild-type (Wuhan-hu-1 strain), 2P stabilised (K986P, V987P), soluble recombinant (SARS-CoV-2 (Wuhan-hu-1 strain)) (UniProt P0DTC2)
# [4] = molecular target: SARS-CoV-2 spike, Omicron (B.1.1.529 strain), HexaPro stabilised (SARS-CoV-2 (Omicron B.1.1.529 strain)) (UniProt P0DTC2)
Substance,percent of spike counts that are trimer [1] [%],stoichiometry N [2],percent of spike with one ACE2 bound [3] [%],percent of spike with two ACE2 bound [3] [%],stoichiometry N [3],stoichiometry N [4],percent of spike with two ACE2 bound [1] [%],stoichiometry N [1]
"SARS-CoV-2 spike, wild-type (Wuhan-hu-1 strain), HexaPro stabilised (K986P, V987P, F817P, A892P, A89 (from UniProt P0DTC2 14-1208) (natural protein)",90,–,–,–,–,–,–,–
angiotensin-converting enzyme-2 (ACE2) with the neck domain (from UniProt Q9BYF1 18-740) (receptor),–,< 3,42,8,< 3,< 3,7,< 3
angiotensin-converting enzyme-2 (ACE2) without the neck domain (from UniProt Q9BYF1 18-740) (receptor),–,< 3,–,–,–,< 3,–,–
